According to patent publication US10087245 (Hoffmann-La Roche, dated 2018):

Target: T1, Pick bodies (cellular inclusions of Pick's disease, only constituted of 3R tau proteins) (human, UniProt P10636-5 2-410, limits assumed)
T1 construct: Target in tissue sections (IHC)
Assay: IHC on human paraffin sections, Pick's disease
Method: Immunohistochemistry was performed on formalin-fixed tissues (paraffin-embedded or frozen sections or vibratome sections). Standard IHC protocols were applied and adapted for each tissue conditions. As most of immunostaining experiments were performed using paraffin sections, a detailed protocol for paraffin-embedded material is described herein. Immunostaining of brain tissue was performed on 4 µm thick paraffin sections. Both human and mouse tissues were used (Human patients with AD or other tauopathies and Tg4510 mice (Santacruz et al. 2005 Science, 309, 476-481). Sections were de-paraffinized in xylene, rehydrated through ethanol (100%, 90%, and 70%), 5 min for each solution and finally brought to running tap water for 10 min. They were then incubated in 98% formic acid for 5 min, washed again under running tap water, quenched for endogenous peroxidase with 3% hydrogen peroxide and 20% methanol, and finally washed in water. Non-specific binding was blocked by incubating the sections for 30 min in 2% bovine serum albumin in TBS+0.5% Tween. Appropriate dilutions of primary antibodies (1-10 µg/ml of VHH with either His or Strep tag) were then applied and slices incubated overnight in a humidified chamber at 4° C. […]

T1 sequence (P10636 other isoform, or with tags, fused parts or gaps limits assumed): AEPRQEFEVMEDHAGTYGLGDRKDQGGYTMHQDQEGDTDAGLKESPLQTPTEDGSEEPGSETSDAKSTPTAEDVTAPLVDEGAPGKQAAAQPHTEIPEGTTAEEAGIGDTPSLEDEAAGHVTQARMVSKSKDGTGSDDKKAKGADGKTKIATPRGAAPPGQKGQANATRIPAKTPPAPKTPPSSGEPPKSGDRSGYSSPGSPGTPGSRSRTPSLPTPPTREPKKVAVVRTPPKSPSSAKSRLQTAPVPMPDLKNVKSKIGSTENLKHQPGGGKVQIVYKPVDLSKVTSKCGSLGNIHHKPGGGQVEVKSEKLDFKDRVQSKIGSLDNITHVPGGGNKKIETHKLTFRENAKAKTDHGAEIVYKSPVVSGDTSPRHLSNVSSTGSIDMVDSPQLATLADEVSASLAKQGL

binding result: no binding
B1: VHH Tau-A2 (VHH)
VHH: EVQLQASGGGLVQAGGSLRLSCAASGRSFSGSTMEWYRQAPGKERKFVAAIRTISSRTYYVDSVKGRFTISRDSTKNTVYLQLNSLKVEDTAVYYCAARFSGTIGTTSSVDYWGQGTQVTVSS
notes: Alpaca VHH, expressed in E. coli with a His-tag or a Strep-tag; monomeric by DLS; not shown: 6-Histidine tag (pET23d) or C-terminal Strep-tag (pASK IBA2)
